Measurements published in PMC2171732 (The Journal of Cell Biology, 2005).

Target: T1, Myo2p globular tail subdomain II (residues 1346–1574), tryptic fragment (S. cerevisiae, UniProt P19524 1346-1574)
T1 sequence (looked up): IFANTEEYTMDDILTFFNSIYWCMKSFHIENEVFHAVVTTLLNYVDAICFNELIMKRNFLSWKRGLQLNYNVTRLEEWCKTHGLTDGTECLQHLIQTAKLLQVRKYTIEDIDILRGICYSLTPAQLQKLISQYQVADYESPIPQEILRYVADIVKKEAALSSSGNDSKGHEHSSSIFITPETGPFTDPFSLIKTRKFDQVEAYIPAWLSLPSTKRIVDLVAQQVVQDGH
Test: SEC

Kd: ≤ 1 nM
B1: Myo2p globular tail subdomain I (residues 1131–1345), tryptic fragment (domain or fragment, S. cerevisiae, UniProt P19524 1131-1345, looked up)
chain: STPSSGNNHIDSLSVDRENGVNATQINEELYRLLEDTEILNQEITEGLLKGFEVPDAGVAIQLSKRDVVYPARILIIVLSEMWRFGLTKQSESFLAQVLTTIQKVVTQLKGNDLIPSGVFWLANVRELYSFVVFALNSILTEETFKNGMTDEEYKEYVSLVTELKDDFEALSYNIYNIWLKKLQKQLQKKAINAVVISESLPGFSAGETSGFLNK
